Measurements from article doi:10.1101/2024.10.11.617910.

What was measured:
[1] = target: beta-amyloid 42 peptide (UniProt P05067); experiment: SiMoA
[2] = target: pyroglutamate beta-amyloid peptide (pGlu3-Aβ); experiment: SiMoA

limit of detection (LoD) [1] [pM]	limit of detection (LoD) [2] [pM]	Substance
200	56	Aducanumab (antibody)
–	5	Donanemab (antibody)
